Data on three molecules can be found in patent US20050048603A1 (priority 2001, published 2005).

The target in one data set is T1, mycoAC204-443R376A (Mycobacterium tuberculosis, UniProt P9WQ35 204-443).
T1 sequence: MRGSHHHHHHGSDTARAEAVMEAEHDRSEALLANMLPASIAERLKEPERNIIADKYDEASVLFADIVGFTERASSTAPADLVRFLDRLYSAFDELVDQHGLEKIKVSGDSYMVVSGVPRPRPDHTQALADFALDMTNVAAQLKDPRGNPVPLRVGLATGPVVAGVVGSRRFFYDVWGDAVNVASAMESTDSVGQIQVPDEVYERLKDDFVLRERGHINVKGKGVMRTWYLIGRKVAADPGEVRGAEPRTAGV

B1: mycoAC204-443 (protein)
chain: MRGSHHHHHHGSDTARAEAVMEAEHDRSEALLANMLPASIAERLKEPERNIIADKYDEASVLFADIVGFTERASSTAPADLVRFLDRLYSAFDELVDQHGLEKIKVSGDSYMVVSGVPRPRPDHTQALADFALDMTNVAAQLKDPRGNPVPLRVGLATGPVVAGVVGSRRFFYDVWGDAVNVASRMESTDSVGQIQVPDEVYERLKDDFVLRERGHINVKGKGVMRTWYLIGRKVAADPGEVRGAEPRTAGV
On to B1, for which the “specific adenylyl cyclase activity against protein concentration” value with P9WQ35 is recorded as “From 50 to 300 nM it increased five-fold”.

B2: mycoAC204-443D300A (enzyme)
chain: MRGSHHHHHHGSDTARAEAVMEAEHDRSEALLANMLPASIAERLKEPERNIIADKYDEASVLFADIVGFTERASSTAPADLVRFLDRLYSAFDELVDQHGLEKIKVSGASYMVVSGVPRPRPDHTQALADFALDMTNVAAQLKDPRGNPVPLRVGLATGPVVAGVVGSRRFFYDVWGDAVNVASRMESTDSVGQIQVPDEVYERLKDDFVLRERGHINVKGKGVMRTWYLIGRKVAADPGEVRGAEPRTAGV
As a reminder, the Kd is the equilibrium constant for the complex coming apart. A higher Kd goes with a looser complex. Turning to B2, the Kd with mycoAC204-443R376A is 2000 nM.

B3: mycoAC204-443D256A (enzyme)
chain: MRGSHHHHHHGSDTARAEAVMEAEHDRSEALLANMLPASIAERLKEPERNIIADKYDEASVLFAAIVGFTERASSTAPADLVRFLDRLYSAFDELVDQHGLEKIKVSGDSYMVVSGVPRPRPDHTQALADFALDMTNVAAQLKDPRGNPVPLRVGLATGPVVAGVVGSRRFFYDVWGDAVNVASRMESTDSVGQIQVPDEVYERLKDDFVLRERGHINVKGKGVMRTWYLIGRKVAADPGEVRGAEPRTAGV
For the molecule B3, in the data set with mycoAC204-443R376A, the Kd was found to be 2000 nM. This lies in the single-digit micromolar range.
